This passage reports binding result and Kd results from publication PMC10136559, “An Aptamer That Rapidly Internalizes into Cancer Cells Utilizes the Transferrin Receptor Pathway”.

For data set [1], the target named is mouse transferrin receptor (mTfR) (Mus musculus, UniProt Q62351 89-763). Briefly: bead-based flow cytometry; 200 nM aptamer; SB1T: 40 mM HEPES, 125 mM NaCl, 5 mM KCl, 1 mM MgCl2, 1 mM CaCl2, 0.05% Tween20, 1 mg/mL salmon sperm DNA; 37 °C, 30 min; pH not stated. The following applies: protein: recombinant, chain copies: 2, label: 5' DyLight 650 via thiol C6. For orientation: A flow cytometer gives signals particle by particle.
Chain of mouse transferrin receptor (mTfR) (Q62351 89-763): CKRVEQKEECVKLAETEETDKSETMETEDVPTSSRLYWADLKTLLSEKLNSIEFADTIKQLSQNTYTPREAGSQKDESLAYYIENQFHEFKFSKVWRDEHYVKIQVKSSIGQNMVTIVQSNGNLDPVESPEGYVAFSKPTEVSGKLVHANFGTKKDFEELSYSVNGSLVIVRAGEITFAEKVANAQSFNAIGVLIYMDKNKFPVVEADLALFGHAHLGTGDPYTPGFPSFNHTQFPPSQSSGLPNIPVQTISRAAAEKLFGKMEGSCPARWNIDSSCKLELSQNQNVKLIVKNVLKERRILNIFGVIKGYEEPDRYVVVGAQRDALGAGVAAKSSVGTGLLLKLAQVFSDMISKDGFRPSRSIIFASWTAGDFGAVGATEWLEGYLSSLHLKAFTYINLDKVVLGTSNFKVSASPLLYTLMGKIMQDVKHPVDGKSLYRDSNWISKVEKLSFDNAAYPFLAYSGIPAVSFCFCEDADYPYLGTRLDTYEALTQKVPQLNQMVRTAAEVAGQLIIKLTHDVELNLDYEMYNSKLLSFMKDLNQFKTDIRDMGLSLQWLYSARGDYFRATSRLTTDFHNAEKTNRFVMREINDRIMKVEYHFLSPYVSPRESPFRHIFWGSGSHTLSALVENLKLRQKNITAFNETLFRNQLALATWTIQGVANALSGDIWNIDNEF

Data set [2] has as its target T1, human transferrin receptor 1 (hTfR) (Homo sapiens, UniProt P02786 89-760). Briefly: bead-based flow cytometry; apparent Kd; SB1T: 40 mM HEPES, 125 mM NaCl, 5 mM KCl, 1 mM MgCl2, 1 mM CaCl2, 0.05% Tween20, 1 mg/mL salmon sperm DNA; 37 °C, 30 min; pH not stated. As to conditions: protein: recombinant, tags: His, chain copies: 2, label: 5' DyLight 650 via thiol C6.
The target in data set [3] is T1, human transferrin receptor 1 (hTfR). The data set can be described thus: bead-based flow cytometry; apparent Kd; 0-100 nM aptamer range; SB1T: 40 mM HEPES, 125 mM NaCl, 5 mM KCl, 1 mM MgCl2, 1 mM CaCl2, 0.05% Tween20, 1 mg/mL salmon sperm DNA; 37 °C, 30 min; pH not stated. As to conditions: protein: recombinant; tags: His; chain copies: 2; label: 5' DyLight 650 via thiol C6.

The mark [4] stands for this setting: hairpin with bulge and loop (predicted).

T1 sequence (P02786 89-760): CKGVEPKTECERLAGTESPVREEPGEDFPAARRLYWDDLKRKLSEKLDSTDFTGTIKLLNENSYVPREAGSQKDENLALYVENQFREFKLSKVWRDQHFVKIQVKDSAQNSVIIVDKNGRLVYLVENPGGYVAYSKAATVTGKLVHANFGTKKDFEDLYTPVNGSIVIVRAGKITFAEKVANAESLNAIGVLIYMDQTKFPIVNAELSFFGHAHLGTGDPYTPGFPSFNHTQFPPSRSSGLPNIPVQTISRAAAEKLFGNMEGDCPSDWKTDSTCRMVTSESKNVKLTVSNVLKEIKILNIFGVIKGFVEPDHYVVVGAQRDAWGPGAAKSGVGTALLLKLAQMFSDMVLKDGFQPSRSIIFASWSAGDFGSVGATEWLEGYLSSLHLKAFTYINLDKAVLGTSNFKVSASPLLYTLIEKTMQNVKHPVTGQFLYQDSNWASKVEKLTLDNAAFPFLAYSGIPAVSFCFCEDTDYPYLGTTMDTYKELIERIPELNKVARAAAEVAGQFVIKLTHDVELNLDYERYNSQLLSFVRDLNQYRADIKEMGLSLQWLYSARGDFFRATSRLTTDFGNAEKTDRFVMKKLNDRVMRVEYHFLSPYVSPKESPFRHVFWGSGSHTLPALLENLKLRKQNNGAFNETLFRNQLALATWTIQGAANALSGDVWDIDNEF

B1: E3 (DL650-E3) (XNA)
RNA: GGCUUUCGGGCUUUCGGCAACAUCAGCCCCUCAGCC
modifications: 2'-fluoro pyrimidines; 3' inverted dT
Consider B1, for which the binding result in data set [1] (setting [4]) is recorded as “no binding”. Further, the Kd in data set [2] (setting [4]) is 4.23 nM.

B2: C2.min (DL650-C2.min) (XNA)
RNA: GGGGGAUCAAUCCAAGGGACCCGGAAACGCUCCCUUACACCCC
modifications: 2'-fluoro pyrimidines; 3' inverted dT
Regarding B2, the Kd in data set [2] turned out to be 7.44 nM.

B3: C36 (DL650-C36) (XNA)
RNA: GGCGUAGUGAUUAUGAAUCGUGUGCUAAUACACGCC
modifications: 2'-fluoro pyrimidines; 3' inverted dT
With B3, the binding result in data set [1] is “no binding”.

B4: Waz (DL650-Waz) (XNA)
RNA: GGGUUCUACGAUAAACGGUUAAUGACCAGCUUAUGGCUGGCAGUUCCC
modifications: 2'-fluoro pyrimidines; 3' inverted dT
For the molecule B4, the binding result in data set [1] is “no binding”. For the same molecule, the Kd in data set [3] turned out to be 22.1 nM.
